{"source": "patent US20020150567A1", "about": "(University of California, published 2002)", "binders": {"B1": {"name": "p85 SH3 domain (amino acids 1-81) (other, UniProt P26450 1-81, looked up)", "chain": "MSAEGYQYRALYDYKKEREEDIDLHLGDILTVNKGSLVALGFSDGQEARPEDIGWLNGYNETTGERGDFPGTYVEYIGRKR", "modifications": "radioactively labeled", "notes": "range 1-81"}}, "target": "T1, GST (UniProt P08515 1-218 = GST)", "T1 construct": "Control protein; also called GST itself", "T1 sequence (P08515 whole entry)": "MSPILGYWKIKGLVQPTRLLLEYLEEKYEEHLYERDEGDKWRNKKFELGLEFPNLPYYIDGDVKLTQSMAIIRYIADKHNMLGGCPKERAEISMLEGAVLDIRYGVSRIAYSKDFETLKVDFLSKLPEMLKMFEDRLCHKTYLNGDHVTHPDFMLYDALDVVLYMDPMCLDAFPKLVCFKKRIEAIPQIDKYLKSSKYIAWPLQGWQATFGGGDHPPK", "assay": "Far-Western blot with radioactively labeled probe", "description": "A bacterially expressed GST-GRB2 fusion protein containing a 5 amino acid RRASV heart muscle kinase site was purified and radioactively labeled with [³²P]ATP.", "data": [{"binder": "B1", "values": [{"measurement": "binding result", "value": "no binding"}]}]}
